The results in this text go back to article PMC3169403 (Acta Crystallographica Section F: Structural Biology and …, 2011).

For the assay, the target named is glutaryl-CoA dehydrogenase from Burkholderia pseudomallei (Burkholderia pseudomallei strain 1710b). In words: crystal structure.

By stoichiometry N is commonly meant the number of molecules, sites or subunits per partner or assembly. The substance “glutaryl-CoA dehydrogenase from Burkholderia pseudomallei (enzyme)” displayed a stoichiometry N of 4.
